Molecular target: T1, CypA (Homo sapiens, UniProt P62937)
T1 construct: CypA was purified as previously described; made in house; host or cells: E. coli BL21 (DE3)
Test: NMR titration of 15N-CypA, binding isotherms
Settings: chemical shift changes, 25° C.
Method: NMR sample preparation, spectroscopy, and data analysis. All NMR spectra were collected at 25° C. on a Varian 600-, 720- , 800-, or 900-MHz spectrometer in 50 mM NaPO4, pH 6.5, 150 mM NaCl, and 50 mM imidazole supplemented with 7% D2O. There were only modest changes to the resonance positions with imidazole present (data not shown), yet imidazole did increase the lifetime of each sample slightly and, thus, was maintained in all samples. Samples utilized for assignment purposes contained 0.5-1 mM protein, while all samples utilized for titration purposes contained 0.5 mM protein with the indicated final concentration of the titrant. All spectra were processed using NMRPipe software65 and analyzed using CCPNmr software.66 Unless otherwise noted, all pulse sequences were obtained from standard Varian Biopack libraries. Transverse relaxation optimized spectroscopy (i.e., TROSY-based) HSQC experiments were used only when noted.
NMR titration experiments were first conducted using 15N-CypA with unlabeled CD147, and chemical shift changes were only observed for extracellular recombinant CD147 constructs that included the membrane-proximal region of CD147 residues 206-214. […] However, both extracellular cyclophilin ligands of CD147, CypA and CypB, are known to readily traverse the membrane. […]

T1 sequence (P62937 whole entry): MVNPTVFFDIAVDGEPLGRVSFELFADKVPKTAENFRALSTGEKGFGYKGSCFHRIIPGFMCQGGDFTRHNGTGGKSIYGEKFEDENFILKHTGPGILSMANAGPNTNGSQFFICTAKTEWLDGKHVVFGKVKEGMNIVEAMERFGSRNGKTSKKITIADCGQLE

B1: CD147: extracellular recombinant CD147 constructs that include membrane-proximal residues 206-214 (protein, UniProt P35613 138-323, looked up)
extracellular domain: EPGTVFTTVEDLGSKILLTCSLNDSATEVTGHRWLKGGVVLKEDALPGQKTEFKVDSDDQWGEYSCVFLPEPMGTANIQLHGPPRVKAVKSSEHINEGETAMLVCKSESVPPVTDWAWYKITDSEDKALMNGSESRFFVSSSQGRSELHIENLNMEADPGQYRCNGTSSKGSDQAIITLRVRSHLA
modifications: extracellular domain
- Kd: > 1 mM

— patent publication US20100278829A1, “DUAL INHIBITION OF IMMUNOPHILIN/CYCLOPHILIN FAMILY MEMBERS AND EMMPRIN IMMUNOGLOBULIN RECEPTOR SUPERFAMILY MEMBERS” (priority 2009, published 2010)
